Measured values reported in US5989823, “Homogeneous detection of a target through nucleic acid ligand-ligand beacon interaction” (NeXstar Pharmaceuticals, Inc.).

B1: TAQ nucleic acid ligand (ssDNA)
DNA: TGGCGGAGCGATCATCTCAGAGCATTCTTAGCGTTTTGTTCTTGTGTATGA

Experiments:
[1] = biological target: T1, PDGF (platelet derived growth factor) (Homo sapiens, UniProt P01127 P01127:82-190); test: competition; ligand beacon (SEQ ID NO:2) fluorescence decreases with PDGF; 100 nM aptamer, PBSM (1 mM MgCl2), 4 uM tRNA, 30 C; also in human plasma at 37 C; conditions: chain copies: 2
T1 sequence (P01127 82-190, one chain of several): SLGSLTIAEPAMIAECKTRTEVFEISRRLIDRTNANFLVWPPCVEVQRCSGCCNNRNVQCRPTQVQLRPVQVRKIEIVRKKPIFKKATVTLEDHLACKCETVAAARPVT
Description: The PDGF ligand beacon was used in an assay in which 100 nM PDGF nucleic acid ligand above was mixed with an increasing concentration of PDGF for 10 minutes at 30° C. […] in PBSM buffer containing 4 µM tRNA. Then, 100 nM PDGF ligand beacon was added and the mixture was incubated for 10 minutes at 30° C. A measurement of fluorescein emission at 530 nm was made for each concentration of PDGF using 488 nm monochromatic laser light for excitation in a 96 well format Vistra Fluorimager SI. […] This is the expected result, because as the concentration of PDGF increases, the concentration of PDGF nucleic acid ligand that is not bound to PDGF decreases. Thus, there is a smaller pool of PDGF nucleic acid ligand for the PDGF ligand beacon to hybridize to.

[2] = biological target: T1, PDGF (platelet derived growth factor); test: competition; no change in beacon fluorescence; 100 nM aptamer, PBSM, 4 uM tRNA, 37 C; conditions: chain copies: 2
Description: Specificity of Nucleic Acid Ligand Interaction with Target in the Presence of Ligand Beacon In the previous examples, a concentration-dependent signal reduction was observed when the target was added. This should not be observed when the wrong target protein is added. This point is illustrated in FIG. 7, where TAQ-nucleic acid ligand (100 nM) was mixed with increasing concentrations of PDGF in PBSM buffer containing 4 μM tRNA at 37° C. for 10 min. Then 110 nM TAQ-ligand beacon was added, incubated for an additional 10 min at the same temperature and fluorescence was measured.

| Binder | binding result [1] | binding result [2] |
| --- | --- | --- |
| TGGGAGGGCGCGTTCTTCGTGGTTACTTTTAGTCCCGT (ssDNA) [PDGF nucleic acid ligand] | binds |  |
| B1 |  | no binding |
